In publication PMC2756588:

Key:
Test in all cases: SPOT array
Abp1, P15891 = molecular target: T1, Abp1, P15891; conditions: median of control spots 935
T1 sequence (P15891 535-592, looked up): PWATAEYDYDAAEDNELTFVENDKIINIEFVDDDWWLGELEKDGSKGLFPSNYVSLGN

Bbc1, P47068 = molecular target: T2, Bbc1, P47068; conditions: median of control spots 796
T2 sequence (P47068 1-78, looked up): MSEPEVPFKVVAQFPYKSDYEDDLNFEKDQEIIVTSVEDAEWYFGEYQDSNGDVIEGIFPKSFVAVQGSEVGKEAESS

Bem1-1, P29366 = conditions: median of control spots 4282
Chain of Bem1-1, P29366 (P29366 55-141): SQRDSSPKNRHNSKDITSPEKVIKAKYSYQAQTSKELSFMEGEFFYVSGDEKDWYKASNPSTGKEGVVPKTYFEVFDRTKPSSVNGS

Bem1-2, P29366 = conditions: median of control spots 4347
Chain of Bem1-2, P29366 (P29366 139-227): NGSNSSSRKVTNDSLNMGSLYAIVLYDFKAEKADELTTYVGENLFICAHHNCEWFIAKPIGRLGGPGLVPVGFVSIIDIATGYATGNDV

Boi1, P38041 = molecular target: T3, Boi1, P38041; conditions: median of control spots 1162
T3 sequence (P38041 1-86, looked up): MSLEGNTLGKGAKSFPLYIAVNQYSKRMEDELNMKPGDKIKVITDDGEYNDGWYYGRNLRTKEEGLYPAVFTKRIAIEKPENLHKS

Boi2, P39969 = molecular target: T4, Boi2, P39969; conditions: median of control spots 1161
T4 sequence (P39969 32-116, looked up): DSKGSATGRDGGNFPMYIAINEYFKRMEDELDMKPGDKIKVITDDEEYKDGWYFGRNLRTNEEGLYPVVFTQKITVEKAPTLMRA

Bud14, P27637 = molecular target: T5, Bud14, P27637; conditions: median of control spots 956
T5 sequence (P27637 247-328, looked up): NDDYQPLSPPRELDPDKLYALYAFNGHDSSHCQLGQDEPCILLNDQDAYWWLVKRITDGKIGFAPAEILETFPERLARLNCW

Bzz1-1, P38822 = molecular target: T6, Bzz1-1, P38822; conditions: median of control spots 4446
T6 sequence (P38822 478-572, looked up): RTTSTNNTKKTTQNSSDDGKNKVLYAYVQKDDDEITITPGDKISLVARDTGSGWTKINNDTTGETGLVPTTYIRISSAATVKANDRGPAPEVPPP

Bzz1-2, P38822 = molecular target: T7, Bzz1-2, P38822; conditions: median of control spots 4538
T7 sequence (P38822 568-633, looked up): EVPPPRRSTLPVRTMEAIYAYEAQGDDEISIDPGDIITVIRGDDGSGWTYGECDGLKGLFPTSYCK

Cdc25, P04821 = molecular target: T8, Cdc25, P04821; conditions: median of control spots 969
T8 sequence (P04821 50-136, looked up): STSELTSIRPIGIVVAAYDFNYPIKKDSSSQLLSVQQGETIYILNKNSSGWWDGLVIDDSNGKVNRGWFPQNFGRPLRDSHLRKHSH

Cyk3, Q07533 = molecular target: T9, Cyk3, Q07533; conditions: median of control spots 1451
T9 sequence (Q07533 1-83, looked up): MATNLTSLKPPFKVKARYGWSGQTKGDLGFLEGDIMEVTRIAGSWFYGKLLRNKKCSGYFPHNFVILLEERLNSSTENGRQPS

Fus1, P11710 = molecular target: T10, Fus1, P11710; conditions: median of control spots 1200
T10 sequence (P11710 432-512, looked up): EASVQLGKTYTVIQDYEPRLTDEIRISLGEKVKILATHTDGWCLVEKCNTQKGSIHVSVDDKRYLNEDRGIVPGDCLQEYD

GST = conditions: median of control spots 978
Hof1, Q05080 = molecular target: T11, Hof1, Q05080; conditions: median of control spots 4086
T11 sequence (Q05080 590-669, looked up): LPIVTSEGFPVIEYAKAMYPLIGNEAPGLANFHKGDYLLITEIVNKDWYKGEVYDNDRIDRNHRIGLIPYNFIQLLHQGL

Hse1, P38753 = molecular target: T12, Hse1, P38753; conditions: median of control spots 1727
T12 sequence (P38753 208-285, looked up): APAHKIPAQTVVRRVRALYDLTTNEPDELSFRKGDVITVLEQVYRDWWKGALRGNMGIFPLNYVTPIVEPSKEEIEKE

Lsb1, P53281 = molecular target: T13, Lsb1, P53281; conditions: median of control spots 388
T13 sequence (P53281 45-122, looked up): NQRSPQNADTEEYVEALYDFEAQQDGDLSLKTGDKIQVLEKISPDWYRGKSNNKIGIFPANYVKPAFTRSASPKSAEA

Lsb3, P43603 = molecular target: T14, Lsb3, P43603; conditions: median of control spots 406
T14 sequence (P43603 385-451, looked up): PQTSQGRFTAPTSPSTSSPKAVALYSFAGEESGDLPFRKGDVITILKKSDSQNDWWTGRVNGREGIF

Lsb4, P32793 = molecular target: T15, Lsb4, P32793; conditions: median of control spots 397
T15 sequence (P32793 402-468, looked up): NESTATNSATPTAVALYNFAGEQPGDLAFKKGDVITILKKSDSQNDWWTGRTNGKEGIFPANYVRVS

Myo3, P36006 = conditions: median of control spots 468
Myo5, Q04439 = molecular target: T16, Myo5, Q04439; conditions: median of control spots 471
T16 sequence (Q04439 1072-1160, looked up): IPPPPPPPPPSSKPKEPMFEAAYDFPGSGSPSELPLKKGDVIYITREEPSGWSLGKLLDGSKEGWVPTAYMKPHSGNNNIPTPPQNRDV

Nbp2, Q12163 = molecular target: T17, Nbp2, Q12163; conditions: median of control spots 357
T17 sequence (Q12163 103-180, looked up): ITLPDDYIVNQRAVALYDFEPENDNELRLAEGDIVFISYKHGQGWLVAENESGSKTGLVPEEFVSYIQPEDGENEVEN

Pex13, P80667 = molecular target: T18, Pex13, P80667; conditions: median of control spots 1341
T18 sequence (P80667 295-386, looked up): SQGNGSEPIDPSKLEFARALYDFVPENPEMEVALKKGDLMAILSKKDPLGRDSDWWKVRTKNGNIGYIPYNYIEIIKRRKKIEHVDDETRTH

Pin3, Q06449 = molecular target: T19, Pin3, Q06449; conditions: median of control spots 2171
T19 sequence (Q06449 53-122, looked up): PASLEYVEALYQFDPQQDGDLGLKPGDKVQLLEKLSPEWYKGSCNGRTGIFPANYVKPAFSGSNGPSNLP

Rvs167, P39743 = conditions: median of control spots 2707
Chain of Rvs167, P39743 (P39743 419-482): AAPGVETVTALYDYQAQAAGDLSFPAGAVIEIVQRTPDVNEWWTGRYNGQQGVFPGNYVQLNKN

Sho1, P40073 = conditions: median of control spots 1148
Chain of Sho1, P40073 (P40073 287-367): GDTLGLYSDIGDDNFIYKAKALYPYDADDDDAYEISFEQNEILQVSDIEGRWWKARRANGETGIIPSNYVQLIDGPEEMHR

Sla1-2, P32790 = molecular target: T20, Sla1-2, P32790; conditions: median of control spots 712
T20 sequence (P32790 60-140, looked up): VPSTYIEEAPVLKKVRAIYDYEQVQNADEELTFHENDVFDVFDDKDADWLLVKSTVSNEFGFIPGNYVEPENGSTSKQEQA

Sla1-3, P32790 = molecular target: T21, Sla1-3, P32790; conditions: median of control spots 5475
T21 sequence (P32790 344-424, looked up): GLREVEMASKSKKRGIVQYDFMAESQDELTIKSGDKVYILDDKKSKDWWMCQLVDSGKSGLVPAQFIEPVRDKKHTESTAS

Binder	SPOT intensity (Abp1, P15891)	SPOT intensity (Bbc1, P47068)	SPOT intensity (Bem1-1, P29366)	SPOT intensity (Bem1-2, P29366)	SPOT intensity (Boi1, P38041)	SPOT intensity (Boi2, P39969)	SPOT intensity (Bud14, P27637)	SPOT intensity (Bzz1-1, P38822)	SPOT intensity (Bzz1-2, P38822)	SPOT intensity (Cdc25, P04821)	SPOT intensity (Cyk3, Q07533)	SPOT intensity (Fus1, P11710)	SPOT intensity (GST)	SPOT intensity (Hof1, Q05080)	SPOT intensity (Hse1, P38753)	SPOT intensity (Lsb1, P53281)	SPOT intensity (Lsb3, P43603)	SPOT intensity (Lsb4, P32793)	SPOT intensity (Myo3, P36006)	SPOT intensity (Myo5, Q04439)	other results
SGVRLPAPPPPPRRG	0	0	3	0	0	1	3	6	20	0	1	0	0	633	0	0	0	0	0	0	SPOT intensity (Nbp2, Q12163): 0; SPOT intensity (Pex13, P80667): 55; SPOT intensity (Pin3, Q06449): 4; SPOT intensity (Rvs167, P39743): 3630; SPOT intensity (Sho1, P40073): 0; SPOT intensity (Sla1-2, P32790): 3; SPOT intensity (Sla1-3, P32790): 0
VPVAPPPPPASLGQS	0	0	4	1	0	0	0	8	0	0	0	0	0	0	0	0	0	0	0	1	SPOT intensity (Nbp2, Q12163): 0; SPOT intensity (Pex13, P80667): 0; SPOT intensity (Pin3, Q06449): 0; SPOT intensity (Rvs167, P39743): 0; SPOT intensity (Sho1, P40073): 0; SPOT intensity (Sla1-2, P32790): 0; SPOT intensity (Sla1-3, P32790): 0
RPVPPPPPMRTTTEG	0	0	3	6	0	0	0	19	664	0	0	1	0	23	9	0	0	0	0	2	SPOT intensity (Nbp2, Q12163): 0; SPOT intensity (Pex13, P80667): 185; SPOT intensity (Pin3, Q06449): 59; SPOT intensity (Rvs167, P39743): 7510; SPOT intensity (Sho1, P40073): 2; SPOT intensity (Sla1-2, P32790): 0; SPOT intensity (Sla1-3, P32790): 2
RNNRPVPPPPPMRTT	0	0	5	0	0	1	0	6	233	0	2	0	0	0	7	0	0	0	0	1	SPOT intensity (Nbp2, Q12163): 0; SPOT intensity (Pex13, P80667): 201; SPOT intensity (Pin3, Q06449): 31; SPOT intensity (Rvs167, P39743): 1870; SPOT intensity (Sho1, P40073): 0; SPOT intensity (Sla1-2, P32790): 1; SPOT intensity (Sla1-3, P32790): 0
